According to PMC5063366, “Crystal Structure of Saccharomyces cerevisiae ECM4, a Xi-Class Glutathione Transferase that Reacts with Glutathionyl-(hydro)quinones” (PLoS ONE, 2016):

T1: ScECM4 (Saccharomyces cerevisiae, UniProt P36156)
T1 construct: gene ECM4; full-length, C-terminal His-tag kept (pET-26b NdeI/XhoI), expressed in E. coli Rosetta2 (DE3) pLysS; dimer
T1 sequence (P36156 1-370): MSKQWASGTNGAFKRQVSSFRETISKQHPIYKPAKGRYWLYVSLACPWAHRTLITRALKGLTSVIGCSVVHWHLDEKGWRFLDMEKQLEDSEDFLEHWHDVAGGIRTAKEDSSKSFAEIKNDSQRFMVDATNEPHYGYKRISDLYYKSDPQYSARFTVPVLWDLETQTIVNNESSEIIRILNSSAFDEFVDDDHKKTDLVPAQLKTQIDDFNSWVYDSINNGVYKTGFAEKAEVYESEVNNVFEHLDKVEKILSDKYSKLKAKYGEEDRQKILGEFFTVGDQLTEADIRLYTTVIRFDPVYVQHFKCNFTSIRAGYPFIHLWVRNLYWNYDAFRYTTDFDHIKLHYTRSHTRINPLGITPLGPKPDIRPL

B1: ScECM4 (ECM4 from Saccharomyces cerevisiae, glutathionyl-hydroquinone reductase, Xi-class glutathione transferase) (enzyme, UniProt P36156 1-370, looked up)
chain: T1 sequence (P36156 1-370)
notes: ECM4 (Gto2), Saccharomyces cerevisiae, YKR076W; Homodimer in the crystal; The printed end of the C-terminal domain (E372) probably counts residues added by the XhoI site and vector before the His tag (surmised); also called Gto2; GHR ScECM4; source: E. coli Rosetta2 (DE3) pLysS, purified (Ni-NTA, gel filtration on Superdex 200); not shown: His6, C-terminal, kept
B2: glutathionylated ScECM4 (ScECM4-SG) (enzyme, Saccharomyces cerevisiae, UniProt P36156 1-370, looked up)
chain: T1 sequence (P36156 1-370)
modifications: glutathione covalently bound to C46 (mixed disulfide bond)
notes: ECM4 (Gto2), Saccharomyces cerevisiae, YKR076W; same construct as m1, glutathionylated at C46 after soaking or co-crystallisation with GS-menadione; Same construct as m1, with glutathione on C46; Homodimer in the crystal; source: E. coli Rosetta2 (DE3) pLysS, purified (Ni-NTA, gel filtration); crystals soaked with 5 mM GS-menadione; not shown: His6, C-terminal, kept

Tests used:
ScECM4 = biological target: T1, ScECM4; experiment: absorbance loss at […] nm; HPLC of menadione at […] nm; type: biochemical; conditions: GSH 0.05 to 1 mM (spectrophotometry) or 2 mM (HPLC) required; 30 mM Tris-HCl pH 8.0, 1 mM EDTA; room temperature (HPLC)
[1] = biological target: the molecule itself; experiment: crystal structure; microbatch under paraffin oil at 278 K, 20% PEG 2000 MME, 0.1 M Tris-HCl pH 7.0; space group P2(1), two monomers in the asymmetric unit; apo crystals and crystals soaked with 5 mM GS-menadione

Row | Molecule | absorbance loss at 430 nm; HPLC of menadione at 250 nm (ScECM4) | stoichiometry N [1]
1 | CC1=C(SC[C@H](NC(=O)CC[C@H](N)C(=O)O)C(=O)NCC(=O)O)C(=O)c2ccccc2C1=O [GS-menadione] | ScECM4 activity measurements stated for reduction of GS-menadione to menadione in presence of glutathione | –
2 | B1 | – | 2
3 | B2 | – | 2
